Measurements published in patent US20020142355A1 (BAYLOR COLLEGE OF MEDICINE, published 2002).

Target: the molecule itself
Test: Western blot of transfected cells, self-association (trimer) of the fiber fusion

B1: adenovirus type 5 fiber protein joined to full length PSTCD (other)
chain: MKRARPSEDTFNPVYPYDTETGPPTVPFLTPPFVSPNGFQESPPGVLSLRLSEPLVTSNGMLALKMGNGLSLDEAGNLTSQNVTTVSPPLKKTKSNINLEISAPLTVTSEALTVAAAAPLMVAGNTLTMQSQAPLTVHDSKLSIATQGPLTVSEGKLALQTSGPLTTTDSSTLTITASPPLTTATGSLGIDLKEPIYTQNGKLGLKYGAPLHVTDDLNTLTVATGPGVTINNTSLQTKVTGALGFDSQGNMQLNVAGGLRIDSQNRRLILDVSYPFDAQNQLNLRLGQGPLFINSAHNLDINYNKGLYLFTASNNSKKLEVNLSTAKGLMFDATAIAINAGDGLEFGSPNAPNTNPLKTKIGHGLEFDSNKAMVPKLGTGLSFDSTGAITVGNKNNDKLTLWTTPAPSPNCRLNAEKDAKLTLVLTKCGSQILATVSVLAVKGSLAPISGTVQSAHLIIRFDENGVLLNNSFLDPEYWNFRNGDLTEGTAYTNAVGFMPNLSAYPKSHGKTAKSNIVSQVYLNGDKTKPVTLTITLNGTQETGDTTPSAYSMSFSWDWSGHNYINEIFATSSYTFSYIAQEKLKVTVNGTAYDVDVDVDKSHENPMGTILFGGGTGGAPAPAAGGAGAGKAGEGEIPAPLAGTVSKILVKEGDTVKAGQTVLVLEAMKMETEINAPTDGKVEKVLVKERDAVQGGQGLIKIG
modifications: biotin on lysine 89 of PSTCD (numbering of FIG. 1)
notes: also called fiber-PSTCD, full length form
  binding result: no binding

B2: adenovirus type 5 fiber protein with the C-terminal 70 amino acid PSTCD domain (biotinylated) (other)
chain: MKRARPSEDTFNPVYPYDTETGPPTVPFLTPPFVSPNGFQESPPGVLSLRLSEPLVTSNGMLALKMGNGLSLDEAGNLTSQNVTTVSPPLKKTKSNINLEISAPLTVTSEALTVAAAAPLMVAGNTLTMQSQAPLTVHDSKLSIATQGPLTVSEGKLALQTSGPLTTTDSSTLTITASPPLTTATGSLGIDLKEPIYTQNGKLGLKYGAPLHVTDDLNTLTVATGPGVTINNTSLQTKVTGALGFDSQGNMQLNVAGGLRIDSQNRRLILDVSYPFDAQNQLNLRLGQGPLFINSAHNLDINYNKGLYLFTASNNSKKLEVNLSTAKGLMFDATAIAINAGDGLEFGSPNAPNTNPLKTKIGHGLEFDSNKAMVPKLGTGLSFDSTGAITVGNKNNDKLTLWTTPAPSPNCRLNAEKDAKLTLVLTKCGSQILATVSVLAVKGSLAPISGTVQSAHLIIRFDENGVLLNNSFLDPEYWNFRNGDLTEGTAYTNAVGFMPNLSAYPKSHGKTAKSNIVSQVYLNGDKTKPVTLTITLNGTQETGDTTPSAYSMSFSWDWSGHNYINEIFATSSYTFSYIAQEEGEIPAPLAGTVSKILVKEGDTVKAGQTVLVLEAMKMETEINAPTDGKVEKVLVKERDAVQGGQGLIKIG
modifications: biotin on lysine 89 of PSTCD (numbering of FIG. 1, full length PSTCD)
notes: also called fiber/PSTCD fusion protein; fiber of the biotinylated adenovirus
  binding result: binds
